Source: the RNAGym collection of RNA variant scans (doi:10.7554/elife.90254)

B1: LINE1-full (parent)
chain: UACGUAGGUGGUUUUCCCCUGAUAGUGCUAAGGGGGCCUGGAAGUUUGGACUGGGCAGAGCUCAACACAGCGUGGCAAAGUGGCUGUGGCUAGACUGCCUCUCUGGAUUCCUCGUCACUCAGCAGGGCAUCUCUGAGAGAAAUGCC

Variants of: B1
Assay: self-cleavage, relative activity (ratio to wild type); higher = more cleavage; in vitro, sequencing; the parent is a self-cleaving ribozyme

Variant	self-cleavage
G33U A121G	0.64
U104A C131U	1.55
U46A A107G	1.43
G97A U112A	0.16
U20G U47C	0
A6G U15C	0.84
C71G A136G	0.28
U119A U130C	1.85
G82A U130A	1.97
U29G U134A	1.41
U12A A138G	1.37
A42G C120A	1.54
U26A A31G	0.81
A43G C128U	0.79
A22G U29A	1.24
G54U A69G	0.17
C18A U62C	0.11
U73C U134C	1.87
U73C U134A	1.54
C98U U112C	0.26
U73C G125U	2.15
A50G A138C	1.12
U100C A107G	1.73
G35U A77U	1.31

Variant	self-cleavage
U119C C128U	1.13
U85C A140G	0.15
G60C U73C	0.04
A64U G122C	0.44
U1C U134C	0.38
A69G C103A	0.43
A59U A136U	0.87
A65G U112C	0.1
U100A G137A	0.85
U12G A94U	0.24
U46C U115A	1.58
U9C A138G	1.21
U1A A121G	1.73
G7A U45A	0.53
G36C C146G	1.21
U62A U108C	0.04
U5C U15A	0.63
U109A A124U	1.61
G4C A65G	0.08
A77U G93A	0.02
A22G A124G	0.96
A57U A64C	0.06
G60A C111G	0.02
A50G A129G	1.22

Variant	self-cleavage
U109C U143A	1.18
G60A U115C	0.04
A121U U143G	2
U85C G139U	0.22
U45A U104C	1.77
G8A A121G	0.54
A42U G89U	0.04
A30U G35A	1.07
U96A A136U	0.09
C95U G135A	0.17
A78C C90U	0.03
C103U A121G	1.58
U9C G21A	1.32
U29A C101U	1.71
C3A A124U	0.6
U96A C118A	0.02
U102A C116U	0.97
G34A U62C	0.02
U14C A78G	1.22
C123U	1.16
U29C A50U	1.14
G36A U115C	1.53
A50C G122C	1.1
U14G U47C	1.02

Variant	self-cleavage
A42U A57U	0.04
A6U A92U	0.47
G33U U119C	1.19
U87A A124G	0.07
U45C A77U	1.29
U104A A121U	1.11
U20A A94G	0.18
U9C A67G	0.48
C63A	0.06
U104C A142G	1.81
C95A U108C	0
U23A A78G	1.14
A6U C71U	1.15
G35U A141G	1.09
A30U A50G	2.04
A57U C110U	0.05
U104C U112G	1.41
A94G A138U	0.36
C28U G89U	0.06
A79G A124U	1.19
U20C U73C	1.62
U100C G122C	2.12
U119C U130A	1.93
U112C A142G	1.43

Variant	self-cleavage
A50U U81G	0.74
C61U U73C	0.02
G34A U96C	0.05
G106C	1.37
A67G A69G	0.31
A42G C146U	1.18
U14C A69G	0.6
G126U	1.18
U109G A121G	0
U5A A79G	0.87
C28U U130C	0.7
U52A U62A	0.05
U29A U102C	1.2
U9A U115C	1.55
U47C A78U	1.89
G36A A42G	1.07
A30G A140G	0.99
U100C C146A	1.75
U20A A124U	0.91
U14A U132C	1.35
U52C C113A	0.99
U91A U119C	0.84
U5A U14C	0.85
U26A U45G	0.6

Variant	self-cleavage
G33A U143C	1.44
A77G A117U	2.58
U81C G127U	1.22
U132C G144U	1.43
C123U A138G	1.91
A43U A57G	0.89
G70U A121G	0.27
A92G G144A	0.09
A22U G105A	1.29
U45A U109C	1.4
U9A U26C	1.24
U45A A57C	0.14
U26A U100G	1.31
A2G U104A	0.95
C16A A22U	1.21
G36C U39G	0.76
G53A U102G	0.68
C120U A141G	1.32
A124U A141G	1.36
A92G U108C	1.11
U130A A136G	1.46
A22G C101A	1.47
G74U U112C	1.64
U87C U132A	0.33

Variant	self-cleavage
G7C U102C	0
A64U G82A	0.65
U62A U134C	0.05
U134C G135A	2.1
U13A U26C	1.19
U52C U85A	0.13
C61U U102C	0.03
U5A U132C	1.25
U39C A67U	0.16
A65G G144U	0.06
G114A G127A	1.74
G114A G127C	1.34
G89A U112A	0.05
A67G U130A	0.54
U15A G53U	0.72
A42U U132A	1.02
G4C A107G	0.29
A79G A138G	1.22
C38U	1.33
A94G U134C	0.44
A30C G35A	1.51
G4C U85C	0.13
G83A A136G	1.05
U9C A50C	1.25

Variant	self-cleavage
U102C G126U	1.59
A30G A79G	1.19
U20A C131U	1.36
U102A C131U	1.26
U15G A69G	0.95
A31U U46G	1.67
C110G	1.04
A94U U100C	0.33
A138U	1.1
C63U U102C	0.28
U14A U45A	0.23
U15C G114C	1.59
A31U A124U	1.42
U13C A50U	0.83
A94U A140U	0.26
A121G U143G	0.5
U26A C90A	0.04
A77U G97U	0.09
A24G G139A	1.3
U9G A77U	1.44
A31G U47C	0.79
U14A A43G	0.43
U91A U104C	0.42
G44U A78G	1.68

Variant	self-cleavage
U100C A136U	1.73
C28A C131G	0.33
A77G U87A	0.09
U115A A141G	1.5
U1A A92U	0.32
U81C C116A	0.59
G49C A59G	0.12
G53A A77G	1.82
U15C U87A	0.1
G34U U100C	1.5
A6G A43G	1.35
U26C U132C	1.62
U26A G33A	0.67
U26A G58U	0.05
U20G A140G	0.96
G55U A117U	0.46
C56U U112A	0.1
U14C A31G	1.24
U14C A31U	1.11
U47C A142G	1.5
A92C C128U	0.31
G34A U73A	0.8
G48U A57U	0.08
C38U A129U	0.31

Variant	self-cleavage
U1C C68U	0.13
U102A C145U	1.04
C37G A117G	1.66
G36A C95G	0.02
C3A A69G	0.31
U15C A136U	1.41
U96G A117C	0
U13A C111U	0.89
A50G A141G	1
U112C U143G	1.81
C113U A124G	1.31
G53U A77G	2.05
U9C G106A	1.71
A6G A57G	0.64
C63U A136G	0.34
U47C G126A	1.84
U14C G105A	1.38
U39A G54A	0.66
A69G U91A	0.16
U20G U39C	0.98
U108C C111A	1.76
U104A U109C	1.11
G86U A124G	0.07
A92U U130G	1.61

Variant	self-cleavage
A67C U115A	0.04
U47G G48U	0.74
G106U U112C	0.82
U29C C123U	1.21
U29G U96A	0.06
U13G A79U	0.44
G4U U20C	1.33
U39A A141G	1.55
U87C G114U	0.19
U5C U47C	0.67
G36A U130C	1.27
A59G A77C	0.33
A6G G137U	0.81
U85C C113U	0.1
U52C U91C	0.67
U62C U112G	0
A92G C120U	0.07
U102A C146U	0.99
U5A U85C	0.2
U39A U45A	1.54
A31G G72A	0.77
G48A A129G	1.54
U29C U102C	1.1
G35U U130C	1.74

Variant	self-cleavage
U109C A121C	0.99
G58U A142G	0.03
A22G C131U	1.03
G40U U85G	0.28
U102C U108A	1.57
G34A A124U	1.32
U13A A24G	0.53
A31U U115G	0.37
C51A A141G	1.75
U85C G127U	0.14
A78G A138U	1
G27A U102C	0.84
G33C U45C	1.95
A43G U85G	0.15
U46A U62C	0.05
U15G A79G	0
A59U U108G	0.84
G11A A59G	0.08
G60A A124G	0.05
U12G U47C	1.04
G49U U132A	1.31
U85A C98A	0.07
U20C U46C	1.5
A22G U85G	0.45

Variant	self-cleavage
U13G U132G	2.18
U1C U14G	0.36
G4A G75A	0.87
A24U U115A	1.54
G36A U45C	1.81
C71U A141G	0.68
U45A U47C	1.45
A22G G36C	0.37
G44A A50U	0.94
A69U A78G	0.04
G11A U13C	0.51
A43G U46C	0.53
A50U U115C	1.17
G74A U143A	1.72
C37U A129U	0.45
A22G U119A	2.19
A94U C131U	0.29
U14A U46C	1.17
U20A U100C	1.49
A57U U108C	0.17
C146U	1.29
U47C A64G	0.31
U12G A142G	0.83
U73G U115A	1.12

Variant	self-cleavage
C63A U87C	0.06
A92U A138U	0.53
U23A U96C	0.19
G33A U39C	1.16
U46G A69U	0.1
A69G U112A	0.74
A43U G72A	1.38
G35U G74A	1.22
A77G A78G	1.68
U14C A142G	1.34
U62G C113U	0.1
G97U	0.06
U15C U134A	1.04
U45C U109A	1.5
U119G A138G	2.33
A67G U119C	1.07
A67G U119A	0.31
U26A A64G	0.2
A107C A129U	2.42
A124G	0.98
A22C U115A	1.46
U46C U108A	1.4
